Measurements as given in patent publication US20090226456A1 (published 2009).

Key:
Assay in all cases: flow cytometry on transiently transfected cells
[1] = biological target: T1, LTβR on transiently transfected cells (UniProt P36941 31-435, limits assumed)
T1 construct: whole, on cells
Experimental: (§1) One million cells, in 0.1 ml of FACS buffer (PBS, 0.1% BSA, 0.1% NaN₃), were incubated with 0.1-1 microgram of protein or antibody at RT for 15 min. The cells were washed with 3 ml of FACS buffer, reacted with biotinylated primary antibody, and stained with PE-conjugated secondary antibody at RT for 15 min. Cells were then washed again, resuspended in 0.5 microgram/ml of propidium iodide, and live cells were gated and analyzed on a FACScan using the CellQuest software (BD Biosciences).

[2] = biological target: T2, DR4 on transiently transfected cells (UniProt O00220 24-468, limits assumed)
T2 construct: whole, on cells
T2 sequence (looked up): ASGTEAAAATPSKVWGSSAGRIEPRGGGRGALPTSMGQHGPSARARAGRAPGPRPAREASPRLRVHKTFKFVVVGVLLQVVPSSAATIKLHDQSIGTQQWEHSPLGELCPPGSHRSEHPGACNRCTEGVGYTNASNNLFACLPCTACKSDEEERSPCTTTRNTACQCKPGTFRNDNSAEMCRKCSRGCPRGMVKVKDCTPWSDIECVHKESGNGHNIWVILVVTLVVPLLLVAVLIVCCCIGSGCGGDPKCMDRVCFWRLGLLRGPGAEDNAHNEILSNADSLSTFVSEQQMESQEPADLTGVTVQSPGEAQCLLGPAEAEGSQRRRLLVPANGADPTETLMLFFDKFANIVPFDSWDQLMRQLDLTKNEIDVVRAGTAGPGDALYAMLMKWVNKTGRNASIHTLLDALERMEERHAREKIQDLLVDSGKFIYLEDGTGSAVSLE
Experimental: as §1

[3] = biological target: T3, DcR1 on transiently transfected cells (UniProt O14798 26-236, limits assumed)
T3 construct: whole, on cells
T3 sequence (looked up): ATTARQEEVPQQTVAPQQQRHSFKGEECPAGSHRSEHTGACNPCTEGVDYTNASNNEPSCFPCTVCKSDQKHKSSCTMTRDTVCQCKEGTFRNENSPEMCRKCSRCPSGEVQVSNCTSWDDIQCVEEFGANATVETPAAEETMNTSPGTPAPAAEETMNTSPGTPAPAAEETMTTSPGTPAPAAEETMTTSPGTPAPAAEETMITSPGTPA
Experimental: as §1

[4] = biological target: T4, DR5 on transiently transfected cells (UniProt O14763 56-440, limits assumed)
T4 construct: whole, on cells
Experimental: as §1

[5] = biological target: T5, TNFR2 on transiently transfected cells (human, UniProt P20333 23-461)
T5 sequence: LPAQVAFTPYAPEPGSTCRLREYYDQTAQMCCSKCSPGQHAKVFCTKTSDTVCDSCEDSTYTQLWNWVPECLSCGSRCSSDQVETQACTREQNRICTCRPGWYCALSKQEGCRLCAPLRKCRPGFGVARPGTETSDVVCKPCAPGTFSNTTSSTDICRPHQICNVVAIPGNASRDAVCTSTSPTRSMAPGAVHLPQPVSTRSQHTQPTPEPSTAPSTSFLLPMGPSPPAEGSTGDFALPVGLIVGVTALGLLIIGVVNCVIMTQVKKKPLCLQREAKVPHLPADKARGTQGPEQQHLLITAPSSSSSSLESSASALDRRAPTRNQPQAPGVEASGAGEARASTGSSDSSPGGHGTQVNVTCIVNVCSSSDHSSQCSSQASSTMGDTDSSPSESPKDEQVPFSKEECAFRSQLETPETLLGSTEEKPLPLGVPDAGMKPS
Experimental: as §1

[6] = biological target: T6, AITR on transiently transfected cells (UniProt Q9Y5U5 26-241, limits assumed)
T6 construct: whole, on cells
T6 sequence (looked up): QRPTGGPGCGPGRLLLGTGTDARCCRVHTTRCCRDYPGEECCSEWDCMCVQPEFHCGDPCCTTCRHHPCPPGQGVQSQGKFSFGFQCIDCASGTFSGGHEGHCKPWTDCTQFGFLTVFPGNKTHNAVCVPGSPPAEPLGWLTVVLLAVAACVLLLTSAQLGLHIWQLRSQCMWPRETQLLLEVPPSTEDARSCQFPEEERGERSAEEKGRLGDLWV
Experimental: as §1

[7] = biological target: T7, 4-1BB on transiently transfected cells (UniProt Q07011 24-255)
T7 construct: whole, on cells
Experimental: as §1

Measured: binding result

T1 sequence (P36941 31-435 limits assumed): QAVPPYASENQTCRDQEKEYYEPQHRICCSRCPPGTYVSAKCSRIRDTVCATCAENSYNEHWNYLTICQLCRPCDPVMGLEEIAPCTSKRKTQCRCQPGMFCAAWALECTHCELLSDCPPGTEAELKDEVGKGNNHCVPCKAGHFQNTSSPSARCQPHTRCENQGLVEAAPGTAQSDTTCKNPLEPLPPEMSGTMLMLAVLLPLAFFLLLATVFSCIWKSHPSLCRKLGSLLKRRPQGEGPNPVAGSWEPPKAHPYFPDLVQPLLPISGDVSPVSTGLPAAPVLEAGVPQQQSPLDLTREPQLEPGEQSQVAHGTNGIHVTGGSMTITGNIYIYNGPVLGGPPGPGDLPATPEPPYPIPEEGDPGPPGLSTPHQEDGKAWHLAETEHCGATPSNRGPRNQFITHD
T7 sequence (Q07011 24-255): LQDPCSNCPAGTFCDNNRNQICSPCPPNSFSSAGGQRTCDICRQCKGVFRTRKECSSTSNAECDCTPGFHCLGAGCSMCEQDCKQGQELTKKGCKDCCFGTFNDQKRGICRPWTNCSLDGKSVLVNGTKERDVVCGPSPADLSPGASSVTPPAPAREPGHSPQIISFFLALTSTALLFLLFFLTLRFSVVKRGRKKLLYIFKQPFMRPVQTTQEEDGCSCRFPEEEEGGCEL

B1: FLAG-tagged soluble TNF-gamma-beta (aa 72-251) (ligand, human)
chain: DYKDDDDKLKGQEFAPSHQQVYAPLRADGDKPRAHLTVVRQTPTQHFKNQFPALHWEHELGLAFTKNRMNYTNKFLLIPESGDYFIYSQVTFRGMTSECSEIRQAGRPNKPDSITVVITKVTDSYPEPTQLLMGTKSVCEVGSNWFQPIYLGAMFSLQEGDKLMVNVSDISLVDYTKEDKTFFGAFLL
notes: also called FLAG-TNF-gamma-beta; FLAG-TL1β
no binding: all assays above
